Experiments:
[1] = target: CmCalS1 of 'Dongyangshenli' (Cucurbita moschata ('Dongyangshenli'))
[2] = target: CmCalS1 of figleaf gourd (Cucurbita ficifolia (figleaf gourd))

Substance	CmCalS1 enzyme activity in vitro with CmNAC100L1 added (CmNAC100L1 3.5 ng, CmCalS1 85 ng); 18.61 U L^-1 without CmNAC100L1 [1] [U L^-1]	CmCalS1 enzyme activity in vitro with CmNAC100L1 added (CmNAC100L1 3.5 ng, CmCalS1 85 ng); 10.33 U L^-1 without CmNAC100L1 [2] [U L^-1]
CmNAC100L1 of 'Dongyangshenli' (natural protein)	47.8	
CmNAC100L1 of figleaf gourd (natural protein)		3.23
